Patent publication US20220040297A1 (Chugai, published 2022)
Residue numbers refer to the chain shown, from its start. Blank lines part the entries; values can stand above or below the binder they belong to.

Target: CD3ε homodimer protein (human, UniProt P07766 23-126, limits assumed)
Assay: SPR, immobilized CD3ε homodimer;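 further: biacore T200 surface plasmon resonance at 25 °C, antibody variants flowed as analytes over amine-coupled CD3ε homodimer on a CM4 chip, variant binding amount divided by that of GLS3000 antibody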
Description: Each one-amino acid altered form constructed, expressed, and purified in the paragraph (6-2) was evaluated using Biacore T200 (GE Healthcare Japan Corp.). An appropriate amount of CD3ε homodimer protein was immobilized onto Sensor chip CM4 (GE Healthcare Japan Corp.) by the amine coupling method. Then, the antibody having an appropriate concentration was injected thereto as an analyte and allowed to interact with the CD3ε homodimer protein on the sensor chip. Then, the sensor chip was regenerated by the injection of 10 mmol/L glycine-HCl (pH 1.5). The assay was conducted at 25° C., and HBS-EP+ (GE Healthcare Japan Corp.) was used as a running buffer. […] Each parameter was calculated using Biacore T200 Evaluation Software (GE Healthcare Japan Corp.).
Specifically, when the amount of the GLS3000-containing antibody bound was defined as X and the amount of the L chain one-amino acid altered form bound was defined as Y, a value of Z (ratio of amounts bound)=Y/X was used.

Chain of CD3ε homodimer protein (P07766 23-126 limits assumed): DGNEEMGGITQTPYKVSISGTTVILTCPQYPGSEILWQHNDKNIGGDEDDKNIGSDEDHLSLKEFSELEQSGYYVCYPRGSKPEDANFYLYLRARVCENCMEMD

- ratio of amounts bound (vs GLS3000): 0.7
B1: GLS3000 N30L (antibody, name in Kabat numbering, V domains shown)
VH: QVQLVESGGGVVQPGRSLRLSCAASGFTFSNAWMHWVRQAPGKGLEWVAQIKAKSNNYATYYAESVKGRFTISRDDSKNSLYLQMNSLKTEDTAVYYCRYVHYGAYYGVDAWGQGTTVTVSS
VL: DIVMTQSPLSLPVTPGEPASISCRSSQSLVHSNRLTYLHWYQQKPGQAPRLLIYKVSNRFSGVPDRFSGSGSGTDFTLKISRVEAEDVGVYYCGQGTQVPYTFGQGTKLEIK
notes: one-arm format as m2

- ratio of amounts bound (vs GLS3000): 0.67
B2: GLS3000 N53Y (antibody, name in Kabat numbering, V domains shown)
VH: B1 VH
VL: B1 VL with L35N, N58Y
notes: one-arm format as m2

- ratio of amounts bound (vs GLS3000): 0.27
B3: GLS3000 Q90P (antibody, name in Kabat numbering, V domains shown)
VH: B1 VH
VL: B1 VL with L35N, Q95P
notes: one-arm format as m2

- ratio of amounts bound (vs GLS3000): 0.85
B4: GLS3000 Q27D (antibody, name in Kabat numbering, V domains shown)
VH: B1 VH
VL: B1 VL with Q27D, L35N
notes: one-arm format as m2

- ratio of amounts bound (vs GLS3000): 0.99
B5: GLS3000 N30W (antibody, name in Kabat numbering, V domains shown)
VH: B1 VH
VL: B1 VL with L35W
notes: one-arm format as m2

- ratio of amounts bound (vs GLS3000): 0.34
B6: GLS3000 N53D (antibody, name in Kabat numbering, V domains shown)
VH: B1 VH
VL: B1 VL with L35N, N58D
notes: one-arm format as m2

- ratio of amounts bound (vs GLS3000): 0.69
B7: GLS3000 N53F (antibody, name in Kabat numbering, V domains shown)
VH: B1 VH
VL: B1 VL with L35N, N58F
notes: one-arm format as m2

- ratio of amounts bound (vs GLS3000): 0.24
B8: GLS3000 P95L (antibody, name in Kabat numbering, V domains shown)
VH: B1 VH
VL: B1 VL with L35N, P100L
notes: one-arm format as m2

- ratio of amounts bound (vs GLS3000): 0.31
B9: GLS3000 N30P (antibody, name in Kabat numbering, V domains shown)
VH: B1 VH
VL: B1 VL with L35P
notes: one-arm format as m2

- ratio of amounts bound (vs GLS3000): 0.61
B10: GLS3000 N30V (antibody, name in Kabat numbering, V domains shown)
VH: B1 VH
VL: B1 VL with L35V
notes: one-arm format as m2

- ratio of amounts bound (vs GLS3000): 0.81
B11: GLS3000 N53W (antibody, name in Kabat numbering, V domains shown)
VH: B1 VH
VL: B1 VL with L35N, N58W
notes: one-arm format as m2

- ratio of amounts bound (vs GLS3000): 0.81
B12: GLS3000 N53P (antibody, name in Kabat numbering, V domains shown)
VH: B1 VH
VL: B1 VL with L35N, N58P
notes: one-arm format as m2

- ratio of amounts bound (vs GLS3000): 0.56
B13: GLS3000 N53L (antibody, name in Kabat numbering, V domains shown)
VH: B1 VH
VL: B1 VL with L35N, N58L
notes: one-arm format as m2

- ratio of amounts bound (vs GLS3000): 0.73
B14: GLS3000 Q90S (antibody, name in Kabat numbering, V domains shown)
VH: B1 VH
VL: B1 VL with L35N, Q95S
notes: one-arm format as m2

- ratio of amounts bound (vs GLS3000): 0.62
B15: GLS3000 N53M (antibody, name in Kabat numbering, V domains shown)
VH: B1 VH
VL: B1 VL with L35N, N58M
notes: one-arm format as m2

- ratio of amounts bound (vs GLS3000): 1.08
B16: GLS3000 N53K (antibody, name in Kabat numbering, V domains shown)
VH: B1 VH
VL: B1 VL with L35N, N58K
notes: one-arm format as m2

- ratio of amounts bound (vs GLS3000): 0.24
B17: GLS3000 P95D (antibody, name in Kabat numbering, V domains shown)
VH: B1 VH
VL: B1 VL with L35N, P100D
notes: one-arm format as m2

- ratio of amounts bound (vs GLS3000): 0.5
B18: GLS3000 Q90A (antibody, name in Kabat numbering, V domains shown)
VH: B1 VH
VL: B1 VL with L35N, Q95A
notes: one-arm format as m2

- ratio of amounts bound (vs GLS3000): 0.88
B19: GLS3000 Q27E (antibody, name in Kabat numbering, V domains shown)
VH: B1 VH
VL: B1 VL with Q27E, L35N
notes: one-arm format as m2

- ratio of amounts bound (vs GLS3000): 0.29
B20: GLS3000 N30S (antibody, name in Kabat numbering, V domains shown)
VH: B1 VH
VL: B1 VL with L35S
notes: one-arm format as m2

- ratio of amounts bound (vs GLS3000): 1.58
B21: GLS3000 N53R (antibody, name in Kabat numbering, V domains shown)
VH: B1 VH
VL: B1 VL with L35N, N58R
notes: one-arm format as m2

- ratio of amounts bound (vs GLS3000): 1.19
B22: GLS3000 Q27R (antibody, name in Kabat numbering, V domains shown)
VH: B1 VH
VL: B1 VL with Q27R, L35N
notes: one-arm format as m2

- ratio of amounts bound (vs GLS3000): 0.69
B23: GLS3000 N53S (antibody, name in Kabat numbering, V domains shown)
VH: B1 VH
VL: B1 VL with L35N, N58S
notes: one-arm format as m2

- ratio of amounts bound (vs GLS3000): 0.37
B24: GLS3000 P95G (antibody, name in Kabat numbering, V domains shown)
VH: B1 VH
VL: B1 VL with L35N, P100G
notes: one-arm format as m2

- ratio of amounts bound (vs GLS3000): 0.5
B25: GLS3000 N53I (antibody, name in Kabat numbering, V domains shown)
VH: B1 VH
VL: B1 VL with L35N, N58I
notes: one-arm format as m2

- ratio of amounts bound (vs GLS3000): 0.63
B26: GLS3000 P95A (antibody, name in Kabat numbering, V domains shown)
VH: B1 VH
VL: B1 VL with L35N, P100A
notes: one-arm format as m2

- ratio of amounts bound (vs GLS3000): 0.92
B27: GLS3000 Q27L (antibody, name in Kabat numbering, V domains shown)
VH: B1 VH
VL: B1 VL with Q27L, L35N
notes: one-arm format as m2

- ratio of amounts bound (vs GLS3000): 0.61
B28: GLS3000 N53A (antibody, name in Kabat numbering, V domains shown)
VH: B1 VH
VL: B1 VL with L35N, N58A
notes: one-arm format as m2

- ratio of amounts bound (vs GLS3000): 0.17
B29: GLS3000 Q90Y (antibody, name in Kabat numbering, V domains shown)
VH: B1 VH
VL: B1 VL with L35N, Q95Y
notes: one-arm format as m2

- ratio of amounts bound (vs GLS3000): 0.19
B30: GLS3000 Q90D (antibody, name in Kabat numbering, V domains shown)
VH: B1 VH
VL: B1 VL with L35N, Q95D
notes: one-arm format as m2

- ratio of amounts bound (vs GLS3000): 1.04
B31: GLS3000 N30Y (antibody, name in Kabat numbering, V domains shown)
VH: B1 VH
VL: B1 VL with L35Y
notes: one-arm format as m2

- ratio of amounts bound (vs GLS3000): 0.29
B32: GLS3000 N30T (antibody, name in Kabat numbering, V domains shown)
VH: B1 VH
VL: B1 VL with L35T
notes: one-arm format as m2

- ratio of amounts bound (vs GLS3000): 0.85
B33: GLS3000 Q93A (antibody, name in Kabat numbering, V domains shown)
VH: B1 VH
VL: B1 VL with L35N, Q98A
notes: one-arm format as m2

- ratio of amounts bound (vs GLS3000): 0.29
B34: GLS3000 Q27P (antibody, name in Kabat numbering, V domains shown)
VH: B1 VH
VL: B1 VL with Q27P, L35N
notes: one-arm format as m2

- ratio of amounts bound (vs GLS3000): 0.87
B35: GLS3000 N30Q (antibody, name in Kabat numbering, V domains shown)
VH: B1 VH
VL: B1 VL with L35Q
notes: one-arm format as m2

- ratio of amounts bound (vs GLS3000): 0.56
B36: GLS3000 N53V (antibody, name in Kabat numbering, V domains shown)
VH: B1 VH
VL: B1 VL with L35N, N58V
notes: one-arm format as m2

- ratio of amounts bound (vs GLS3000): 0.77
B37: GLS3000 N53Q (antibody, name in Kabat numbering, V domains shown)
VH: B1 VH
VL: B1 VL with L35N, N58Q
notes: one-arm format as m2

- ratio of amounts bound (vs GLS3000): 0.56
B38: GLS3000 N53T (antibody, name in Kabat numbering, V domains shown)
VH: B1 VH
VL: B1 VL with L35N, N58T
notes: one-arm format as m2

- ratio of amounts bound (vs GLS3000): 1.18
B39: GLS3000 N53H (antibody, name in Kabat numbering, V domains shown)
VH: B1 VH
VL: B1 VL with L35N, N58H
notes: one-arm format as m2

- ratio of amounts bound (vs GLS3000): 0.85
B40: GLS3000 Q90E (antibody, name in Kabat numbering, V domains shown)
VH: B1 VH
VL: B1 VL with L35N, Q95E
notes: one-arm format as m2

- ratio of amounts bound (vs GLS3000): 0.8
B41: GLS3000 N30M (antibody, name in Kabat numbering, V domains shown)
VH: B1 VH
VL: B1 VL with L35M
notes: one-arm format as m2

- ratio of amounts bound (vs GLS3000): 0.39
B42: GLS3000 P95E (antibody, name in Kabat numbering, V domains shown)
VH: B1 VH
VL: B1 VL with L35N, P100E
notes: one-arm format as m2

- ratio of amounts bound (vs GLS3000): 1.86
B43: GLS3000 N30R (antibody, name in Kabat numbering, V domains shown)
VH: B1 VH
VL: B1 VL with L35R
notes: one-arm format as m2

- ratio of amounts bound (vs GLS3000): 0.43
B44: GLS3000 P95S (antibody, name in Kabat numbering, V domains shown)
VH: B1 VH
VL: B1 VL with L35N, P100S
notes: one-arm format as m2

- ratio of amounts bound (vs GLS3000): 0.54
B45: GLS3000 N53E (antibody, name in Kabat numbering, V domains shown)
VH: B1 VH
VL: B1 VL with L35N, N58E
notes: one-arm format as m2

- ratio of amounts bound (vs GLS3000): 0.76
B46: GLS3000 N53G (antibody, name in Kabat numbering, V domains shown)
VH: B1 VH
VL: B1 VL with L35N, N58G
notes: one-arm format as m2
